Measurements reported in patent US11697680B2, “Anti-GP73 antibodies and immunoconjugates” (CUREAB GMBH, priority 2016, dated 2023).
Entries after “also recorded” stand apart in the source; their conditions may differ.

Tests used:
GP73 peptide: […] = biological target: T1, GP73 peptide: […] (Homo sapiens, UniProt Q8NBJ4); assay: Biacore surface plasmon resonance, data fit for 1:1 binding; details: Biacore 1:1 binding fit, GP73 peptide SSRSVDLQTRIMELEGRVRR
T1 construct: GP73 peptide: […]
Method: In one embodiment, Kd is measured using surface plasmon resonance assays using a BIACORE®-2000 or a BIACORE®-3000 (BIAcore, Inc., Piscataway, N.J.) at 25° C. with immobilized antigen CM5 chips at […] response units (RU). Briefly, carboxymethylated dextran biosensor chips (CM5, BIACORE, Inc.) are activated with N-ethyl-N′-(3-dimethylaminopropyl) carbodiimide hydrochloride (EDC) and N-hydroxysuccinimide (NHS) according to the supplier's instructions. Antigen is diluted with 10 mM sodium acetate, pH 4.8, to 5 μg/ml (−0.2 μM) before injection at a flow rate of 5 μl/minute to achieve approximately 10 response units (RU) of coupled protein. Following the injection of antigen, 1 M ethanolamine is injected to block unreacted groups. For kinetics measurements, two-fold serial dilutions of antibody (0.58 nM to 200 nM) are injected in PBS with 0.05% polysorbate 20 (TWEEN-20™) surfactant (PEST) at 25° C. at a flow rate of approximately 25 μl/min. Association rates (kon) and dissociation rates (koff) are calculated using a simple one-to-one Langmuir binding model (BIACORE® T100 Evaluation Software) by simultaneously fitting the association and dissociation sensorgrams. The equilibrium dissociation constant (Kd) is calculated as the ratio koff/kon. See, e.g., Chen et al., J. Mol. Biol. 293:865-881 (1999). If the on-rate exceeds […] s^−1 by the surface plasmon resonance assay above, then the on-rate can be determined by using a fluorescent quenching technique that measures the increase or decrease in fluorescence emission intensity (excitation=295 nm; emission=340 nm, 16 nm band-pass) at 25° C. of a 20 nM anti-antigen antibody in PBS, pH 7.2, in the presence of increasing concentrations of antigen as measured in a spectrometer, such as a stop-flow equipped spectrophometer (Aviv Instruments) or a 8000-series SLM-AMINCO™ spectrophotometer (ThermoSpectronic) with a stirred cuvette.

peptide AA 36-55 of GP73 = peptide AA 36-55 of GP73 (Homo sapiens, UniProt Q8NBJ4); assay: Competition peptide ELISA with HRP-labeled antibodies; assay type: binding; details: unlabeled competing antibody at high concentration; binding antibody G2-1-HRP
Method: A peptide ELISA was performed using horse radish peroxidase labeled G2-1 (G2-1-HRP) or G2-2 (G2-2-HRP) as binding antibodies and G2-1 or G2-2 as competing antibodies. […] Binding to peptide AA 36-55 of GP73 served as positive control (filled circle), negative control was binding to an unrelated peptide (filled diamond) as described in Example 5.
ELISA was carried out in 96 well plates coated overnight with biotinylated peptide and blocked with 2% gelatine. Horse radish peroxidase labeled antibodies G2-1 (G2-1-HRP) or G2-2 (G2-2-HRP) were applied and incubated for 1.5 hours. For competition testing non labeled G2-1 or G2-2 was added at high concentration. For pH dependent binding the antibodies were applied in phosphate buffer pH 4.4, 5.4, 6.4 or 7.4. After extensive washing a chromogenic substrate (TMB Amersham) was added to detect peroxidase. The reaction was stopped and absorbance was read at 450 nm.

HuH7 cells = assay: Internalization of pHrodo Green labeled antibodies after pre-incubation with conditioned media containing soluble GP73; assay type: cell-based, human; details: 10 ug/ml pHrodo Green labeled antibody pre-incubated over night, 24 h at 37° C.
Method: Antibody internalization was measured by FACS using the pH-sensitive dye pHrodo Green coupled to each antibody. […] The internalization of G2-2 that binds to rGP73 is not altered as described in Example 6.
Labeled antibodies were purified by size exclusion (40K MWCO). A non binding Isotype Antibody that was not labeled with pHrodo® Green STP Ester (Iso.) was used as control for background fluorescence. 10 ug/ml of each antibody was pre-incubated over night at 4° C. with either fresh culture media or conditioned media. As conditioned media served either supernatant from HEK 293 or HEK 293 GP73-myc cells cultured for 72 hours, that was dialyzed (10 k MWCO) against 1 L fresh media each. To confirm the presence of secreted soluble GP73 after dialysis supernatants were analysed by Western Blot using an anti-myc antibody. 300 ul/well of each pre-incubated antibody was given to 0.6×10^6HuH7 cells growing in 24 well plates for 24 h at 37° C. and 5% CO2. Cells were washed and analysed by FACS.

[1] = tested on: HuH7 (human hepatocellular carcinoma); assay: Cell viability / proliferation with PrestoBlue reagent; assay type: cell-based; details: 0.125 mg/ml to 2 mg/ml, after 72 hrs
Method: FIG. 13A Proliferation of HuH7 cells (human hepatocellular carcinoma) after treatment with different antibodies. HuH7 cells were treated with G2-2, G2-2 plus Cetuximab, mG2-2, mG2-2 plus Cetuximab, Cetuximab or control antibody each in increasing concentrations from 0.125 mg/ml to 2 mg/ml. Proliferating cells were measured after 72 hrs. […] This effect was independent of the Fc part i.e. human IgG1 in G2-2 or murin IgG2a in mG2-2 as described in Example 8.
FIG. 13B Proliferation of HuH7 cells (human hepatocellular carcinoma), 4T1 cells (murin breast carcinoma) and CaCo2 cells (human colorectal carcinoma) after treatment with different antibodies. The three cell lines were treated with G2-1, G2-1 plus Cetuximab, Cetuximab, Bevacizumab or Bevacizumab plus Cetuximab 2 mg/ml total. Proliferating cells were measured after 72 hrs.
Cells from the cell lines HuH7 (human hepatocellular carcinoma), 4T1 (murin breast carcinoma) and CaCo2 (human colorectal carcinoma) were cultured under standard conditions in Dulbecco's modified Eagle Medium (DMEM) supplemented with 10% fetal calf serum (FCS) at 37° C. with 5% CO2. […] Fluorescence was read at 615 nm to quantify cell viability. […]
To test the effect of G2-1 on different cell lines, HuH7, 4T1 and CaCo2 cells were transferred to 96 well plates. […] Cell viability was quantified after 72 hours using PrestoBlue reagent and measuring the fluorescence at 615 nm.

B1: G2-2: scFv clone with human IgG1 heavy and human Igk light constant regions; VH/VL SEQ ID NO: 2 and 3; binds rGP73 AA 36-55 (antibody, V domains shown)
VH: EVQLLQSGGGVVQPGRSLRLSCAASGFTFSSYGMSWVRQAPGKGLEWVAVISYDGSNKYYADSVKGRFTISRDNSKNTLYLQMNSLRAEDTAVYYCAREGSAGMDVWGQGTTVTVSS
VL: DIQMTQPSSLSASPGASASLTCTLRSDISVGFHRIYWYQQKPGSPPQYLLRYKSDSDKQQGSGVPSRFSGSKDASANAGILLISGLQSDDEADYYCVIWHTSGVVFGGGTKVEIK
modifications: human IgG1 and Igk constant regions not cited; G2-2 heavy chain variable region (VH); G2-2 light chain variable region (VL)
koff, measurement 1 + 2 mean (GP73 peptide: […]): 0.001108 s⁻¹ | kon, measurement 1 + 2 mean (GP73 peptide: […]): 260200 M⁻¹ s⁻¹ | Kd (GP73 peptide: […]; read-out: Kd, measurement 1 + 2 mean): 4.29 nM | competition with G2-1-HRP for peptide binding (peptide AA 36-55 of GP73): Competitive inhibition | effect of conditioned media containing soluble GP73 on antibody internalization / cell surface binding (HuH7 cells): unaffected; also recorded: not altered | cell proliferation / cell viability [1]: reduced depending on antibody concentration
